From patent US20180119164A1

How the values were obtained:
Assay in all cases: cell-based or functional assay
[1] = target: Env of HIV pseudovirus ADA (HIV strain ADA)
[2] = target: Env of HIV pseudovirus CAP45 (HIV strain CAP45)
[3] = target: Env of HIV pseudovirus DU156.12 (HIV strain DU156.12)
[4] = target: Env of HIV pseudovirus DU422.1 (HIV strain DU422.1)
[5] = target: Env of HIV pseudovirus JRCSF (HIV strain JRCSF) (UniProt P20871)
[6] = target: Env of HIV pseudovirus JRFL (HIV strain JRFL)
[7] = target: Env of HIV pseudovirus MN (HIV strain MN) (UniProt P05877)
[8] = target: Env of HIV pseudovirus PVO (HIV strain PVO)
[9] = target: Env of HIV pseudovirus TRO.11 (HIV strain TRO.11)
[10] = target: Env of HIV pseudovirus YU2 (HIV strain YU2) (UniProt P35961)
[11] = target: Env of HIV pseudovirus ZM214M (HIV strain ZM214M)

UniProt P20871, sequence (P20871 32-848 limits assumed): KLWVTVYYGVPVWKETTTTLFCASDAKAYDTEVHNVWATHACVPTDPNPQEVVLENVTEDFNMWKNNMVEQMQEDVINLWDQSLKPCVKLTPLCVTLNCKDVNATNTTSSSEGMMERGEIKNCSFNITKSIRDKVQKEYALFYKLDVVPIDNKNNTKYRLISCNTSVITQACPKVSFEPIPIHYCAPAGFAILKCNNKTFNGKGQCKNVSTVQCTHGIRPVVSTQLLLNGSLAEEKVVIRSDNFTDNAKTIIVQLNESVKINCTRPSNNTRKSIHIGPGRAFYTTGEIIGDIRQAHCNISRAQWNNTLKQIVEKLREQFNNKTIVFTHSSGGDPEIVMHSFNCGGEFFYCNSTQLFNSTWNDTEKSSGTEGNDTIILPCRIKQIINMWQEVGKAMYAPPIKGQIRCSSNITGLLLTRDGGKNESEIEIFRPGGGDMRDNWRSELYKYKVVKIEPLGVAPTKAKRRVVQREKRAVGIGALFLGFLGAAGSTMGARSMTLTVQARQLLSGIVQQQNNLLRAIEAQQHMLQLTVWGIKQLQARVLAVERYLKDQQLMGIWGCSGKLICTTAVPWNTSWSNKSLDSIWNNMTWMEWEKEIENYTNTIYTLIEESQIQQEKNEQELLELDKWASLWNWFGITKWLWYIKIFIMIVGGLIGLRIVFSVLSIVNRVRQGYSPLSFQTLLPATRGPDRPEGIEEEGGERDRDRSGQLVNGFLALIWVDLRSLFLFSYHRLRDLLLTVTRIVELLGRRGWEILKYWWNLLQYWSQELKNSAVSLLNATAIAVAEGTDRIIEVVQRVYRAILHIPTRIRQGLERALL
UniProt P05877, sequence (P05877 32-856 limits assumed): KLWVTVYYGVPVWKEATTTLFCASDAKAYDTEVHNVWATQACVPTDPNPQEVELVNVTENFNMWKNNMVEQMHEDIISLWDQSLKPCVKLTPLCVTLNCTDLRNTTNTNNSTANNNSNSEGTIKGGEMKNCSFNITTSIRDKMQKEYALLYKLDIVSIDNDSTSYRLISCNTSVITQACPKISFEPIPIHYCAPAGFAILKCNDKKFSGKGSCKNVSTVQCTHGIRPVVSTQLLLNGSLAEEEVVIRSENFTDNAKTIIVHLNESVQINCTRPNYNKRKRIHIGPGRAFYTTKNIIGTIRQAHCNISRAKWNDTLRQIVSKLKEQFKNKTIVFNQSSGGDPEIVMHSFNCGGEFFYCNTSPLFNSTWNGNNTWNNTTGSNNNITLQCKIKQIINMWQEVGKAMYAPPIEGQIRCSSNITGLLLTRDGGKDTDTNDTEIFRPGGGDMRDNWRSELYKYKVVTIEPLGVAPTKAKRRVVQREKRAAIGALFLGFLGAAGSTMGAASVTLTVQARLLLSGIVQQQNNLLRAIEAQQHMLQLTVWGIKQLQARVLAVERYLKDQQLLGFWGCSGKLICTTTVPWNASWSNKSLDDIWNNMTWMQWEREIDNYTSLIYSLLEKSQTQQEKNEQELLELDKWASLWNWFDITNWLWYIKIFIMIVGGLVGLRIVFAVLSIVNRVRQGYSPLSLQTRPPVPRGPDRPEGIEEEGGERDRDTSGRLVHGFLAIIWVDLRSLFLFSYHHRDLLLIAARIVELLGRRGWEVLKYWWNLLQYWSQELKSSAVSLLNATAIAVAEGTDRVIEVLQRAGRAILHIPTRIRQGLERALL
UniProt P35961, sequence (P35961 32-843 limits assumed): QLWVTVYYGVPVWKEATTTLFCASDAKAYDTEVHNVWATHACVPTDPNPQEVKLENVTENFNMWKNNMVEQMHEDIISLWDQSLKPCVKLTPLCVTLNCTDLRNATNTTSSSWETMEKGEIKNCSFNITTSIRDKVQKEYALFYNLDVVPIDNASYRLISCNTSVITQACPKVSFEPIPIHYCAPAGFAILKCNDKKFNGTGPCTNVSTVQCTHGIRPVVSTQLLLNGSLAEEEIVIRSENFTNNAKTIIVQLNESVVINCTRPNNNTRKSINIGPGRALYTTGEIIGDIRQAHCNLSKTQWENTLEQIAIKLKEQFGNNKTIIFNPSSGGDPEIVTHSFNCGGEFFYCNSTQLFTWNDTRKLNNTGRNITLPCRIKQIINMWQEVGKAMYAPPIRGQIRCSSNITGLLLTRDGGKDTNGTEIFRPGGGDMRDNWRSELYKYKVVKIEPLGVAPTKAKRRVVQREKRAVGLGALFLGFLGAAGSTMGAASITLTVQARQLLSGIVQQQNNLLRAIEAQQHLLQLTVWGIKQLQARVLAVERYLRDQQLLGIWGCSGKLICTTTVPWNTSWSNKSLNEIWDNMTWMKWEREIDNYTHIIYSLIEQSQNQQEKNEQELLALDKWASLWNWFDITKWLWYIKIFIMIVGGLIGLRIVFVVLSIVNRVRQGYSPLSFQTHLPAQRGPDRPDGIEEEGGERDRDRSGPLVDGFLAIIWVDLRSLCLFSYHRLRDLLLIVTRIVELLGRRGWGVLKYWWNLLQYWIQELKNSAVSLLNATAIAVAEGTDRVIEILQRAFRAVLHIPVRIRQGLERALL

Substance	IC50, pseudovirus neutralization (TZM-bl luciferase) [1]	IC50, pseudovirus neutralization (TZM-bl luciferase) [2]	IC50, pseudovirus neutralization (TZM-bl luciferase) [3]	IC50, pseudovirus neutralization (TZM-bl luciferase) [4]	IC50, pseudovirus neutralization (TZM-bl luciferase) [5]	IC50, pseudovirus neutralization (TZM-bl luciferase) [6]	IC50, pseudovirus neutralization (TZM-bl luciferase) [7]	IC50, pseudovirus neutralization (TZM-bl luciferase) [8]	IC50, pseudovirus neutralization (TZM-bl luciferase) [9]	IC50, pseudovirus neutralization (TZM-bl luciferase) [10]	IC50, pseudovirus neutralization (TZM-bl luciferase) [11]
^CHOPG9 (antibody)	42.8 µg/mL	< 0.02 µg/mL	0.35 µg/mL	10.9 µg/mL	< 0.02 µg/mL	> 50 µg/mL	> 50 µg/mL	> 50 µg/mL	> 50 µg/mL	> 50 µg/mL	> 50 µg/mL
^ΔXFPG9 (antibody)	> 50 µg/mL	0.65 µg/mL	> 50 µg/mL	> 50 µg/mL	0.19 µg/mL	> 50 µg/mL	> 50 µg/mL	> 50 µg/mL	> 50 µg/mL	> 50 µg/mL	> 50 µg/mL
^ΔXFPG9Sulf (antibody)	37.4 µg/mL	0.03 µg/mL	1.2 µg/mL	14.3 µg/mL	< 0.02 µg/mL	> 50 µg/mL	> 50 µg/mL	> 50 µg/mL	> 50 µg/mL	> 50 µg/mL	> 50 µg/mL
^ΔXFPG9SulfSia (antibody)	40.2 µg/mL	< 0.02 µg/mL	0.9 µg/mL	6.6 µg/mL	0.03 µg/mL	> 50 µg/mL	> 50 µg/mL	> 50 µg/mL	> 50 µg/mL	> 50 µg/mL	> 50 µg/mL
